The source of these data is publication PMC11145796, “Environmental activity-based protein profiling for function-driven enzyme discovery from natural communities” (Environmental Microbiome, 2024).

Series [1] has as its target T1, putative esterase / UPF0227 protein ExploCarb_3811S_S4_483_length_13114_cov_941_5 (Sulfurihydrogenibium sp., UniProt A0A2J6WYH8).
T1 construct: gene C0178_06060
T1 sequence (A0A2J6WYH8 1-191): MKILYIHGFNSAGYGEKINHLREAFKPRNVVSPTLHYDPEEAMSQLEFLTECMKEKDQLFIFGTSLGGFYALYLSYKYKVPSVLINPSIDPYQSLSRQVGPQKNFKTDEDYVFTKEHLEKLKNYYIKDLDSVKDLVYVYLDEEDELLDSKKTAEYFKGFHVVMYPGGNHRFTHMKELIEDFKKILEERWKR

Substrate in series [2]: CC(=O)Oc1ccc([N+](=O)[O-])cc1
Description: pNP-ester hydrolysis kinetics. In kind it is biochemical, Sulfurihydrogenibium sp. To be noted: pH 8.0, 70 °C, substrate up to 0.7 mM.

Substrate in series [3]: CCCCCCCC(=O)Oc1ccc([N+](=O)[O-])cc1
Briefly: pNP-ester hydrolysis kinetics. In kind it is biochemical, Sulfurihydrogenibium sp. To be noted: pH 8.0, 70 °C, substrate up to 0.7 mM.

Substrate in series [4]: CCCC(=O)Oc1ccc([N+](=O)[O-])cc1
Briefly: pNP-ester hydrolysis kinetics. In kind it is biochemical, Sulfurihydrogenibium sp. Particulars: pH 8.0, 70 °C, substrate up to 0.7 mM.

As for `CCOP(=O)(OCC)Oc1ccc([N+](=O)[O-])cc1` [paraoxon], in series [1], the “competition with FP-alkyne labelling of purified esterase (pre-incubation)” value is listed as “could be strongly diminished by pre-incubation with the generic serine esterase inhibitor paraoxon”.

B1: putative esterase / UPF0227 protein ExploCarb_3811S_S4_483_length_13114_cov_941_5 (Sulfurihydrogenibium sp.) (protein)
chain: T1 sequence (A0A2J6WYH8 1-191)
notes: 191 amino acids; codon-optimized gene in pET-28b(+), expressed in E. coli Rosetta(DE3), purified; motif G63-T64-S65-L66-G67
The Km is the concentration of substrate that gives half-maximal velocity. For B1, the Km in series [2] is 120 µM; in series [3], 160 µM; in series [4], 180 µM.
